Laboratory results: paper PMC4912689, “The Extracellular Surface of the GLP-1 Receptor Is a Molecular Trigger for Biased Agonism” (Cell, 2016)

B1: glucagon-like peptide 1 receptor (GLP-1R), wild-type, P43220 E292A (protein)
chain: RPQGATVSLWETVQKWREYRRQCQRSLTEDPPPATDLFCNRTFDEYACWPDGEPGSFVNVSCPWYLPWASSVPQGHVYRFCTAEGLWLQKDNSSLPWRDLSECEESKRGERSSPEEQLLFLYIIYTVGYALSFSALVIASAILLGFRHLHCTRNYIHLNLFASFILRALSVFIKDAALKWMYSTAAQQHQWDGLLSYQDSLSCRLVFLLMQYCVAANYYWLLVEGVYLYTLLAFSVLSEQWIFRLYVSIGWGVPLLFVVPWGIVKYLYADEGCWTRNSNMNYWLIIRLPILFAIGVNFLIFVRVICIVVSKLKANLMCKTDIKCRLAKSTLTLIPLLGTHEVIFAFVMDEHARGTLRFIKLFTELSFTSFQGLMVAILYCFVNNEVQLEFRKSWERWRLEHLHIQRDSSMKPLKCPTSSLSSGATAGSSMYTATCQASCS
B2: glucagon-like peptide 1 receptor (GLP-1R), wild-type, P43220 S206A (protein)
chain: RPQGATVSLWETVQKWREYRRQCQRSLTEDPPPATDLFCNRTFDEYACWPDGEPGSFVNVSCPWYLPWASSVPQGHVYRFCTAEGLWLQKDNSSLPWRDLSECEESKRGERSSPEEQLLFLYIIYTVGYALSFSALVIASAILLGFRHLHCTRNYIHLNLFASFILRALSVFIKDAALKWMYATAAQQHQWDGLLSYQDSLSCRLVFLLMQYCVAANYYWLLVEGVYLYTLLAFSVLSEQWIFRLYVSIGWGVPLLFVVPWGIVKYLYEDEGCWTRNSNMNYWLIIRLPILFAIGVNFLIFVRVICIVVSKLKANLMCKTDIKCRLAKSTLTLIPLLGTHEVIFAFVMDEHARGTLRFIKLFTELSFTSFQGLMVAILYCFVNNEVQLEFRKSWERWRLEHLHIQRDSSMKPLKCPTSSLSSGATAGSSMYTATCQASCS
B3: glucagon-like peptide 1 receptor (GLP-1R), wild-type, P43220 E387A (protein)
chain: RPQGATVSLWETVQKWREYRRQCQRSLTEDPPPATDLFCNRTFDEYACWPDGEPGSFVNVSCPWYLPWASSVPQGHVYRFCTAEGLWLQKDNSSLPWRDLSECEESKRGERSSPEEQLLFLYIIYTVGYALSFSALVIASAILLGFRHLHCTRNYIHLNLFASFILRALSVFIKDAALKWMYSTAAQQHQWDGLLSYQDSLSCRLVFLLMQYCVAANYYWLLVEGVYLYTLLAFSVLSEQWIFRLYVSIGWGVPLLFVVPWGIVKYLYEDEGCWTRNSNMNYWLIIRLPILFAIGVNFLIFVRVICIVVSKLKANLMCKTDIKCRLAKSTLTLIPLLGTHEVIFAFVMDEHARGTLRFIKLFTALSFTSFQGLMVAILYCFVNNEVQLEFRKSWERWRLEHLHIQRDSSMKPLKCPTSSLSSGATAGSSMYTATCQASCS
B4: glucagon-like peptide 1 receptor (GLP-1R), wild-type, P43220 Q213A (protein)
chain: RPQGATVSLWETVQKWREYRRQCQRSLTEDPPPATDLFCNRTFDEYACWPDGEPGSFVNVSCPWYLPWASSVPQGHVYRFCTAEGLWLQKDNSSLPWRDLSECEESKRGERSSPEEQLLFLYIIYTVGYALSFSALVIASAILLGFRHLHCTRNYIHLNLFASFILRALSVFIKDAALKWMYSTAAQQHAWDGLLSYQDSLSCRLVFLLMQYCVAANYYWLLVEGVYLYTLLAFSVLSEQWIFRLYVSIGWGVPLLFVVPWGIVKYLYEDEGCWTRNSNMNYWLIIRLPILFAIGVNFLIFVRVICIVVSKLKANLMCKTDIKCRLAKSTLTLIPLLGTHEVIFAFVMDEHARGTLRFIKLFTELSFTSFQGLMVAILYCFVNNEVQLEFRKSWERWRLEHLHIQRDSSMKPLKCPTSSLSSGATAGSSMYTATCQASCS
B5: glucagon-like peptide 1 receptor (GLP-1R), wild-type, P43220 I286A (protein)
chain: RPQGATVSLWETVQKWREYRRQCQRSLTEDPPPATDLFCNRTFDEYACWPDGEPGSFVNVSCPWYLPWASSVPQGHVYRFCTAEGLWLQKDNSSLPWRDLSECEESKRGERSSPEEQLLFLYIIYTVGYALSFSALVIASAILLGFRHLHCTRNYIHLNLFASFILRALSVFIKDAALKWMYSTAAQQHQWDGLLSYQDSLSCRLVFLLMQYCVAANYYWLLVEGVYLYTLLAFSVLSEQWIFRLYVSIGWGVPLLFVVPWGAVKYLYEDEGCWTRNSNMNYWLIIRLPILFAIGVNFLIFVRVICIVVSKLKANLMCKTDIKCRLAKSTLTLIPLLGTHEVIFAFVMDEHARGTLRFIKLFTELSFTSFQGLMVAILYCFVNNEVQLEFRKSWERWRLEHLHIQRDSSMKPLKCPTSSLSSGATAGSSMYTATCQASCS
B6: glucagon-like peptide 1 receptor (GLP-1R), wild-type, P43220 D372A (protein)
chain: RPQGATVSLWETVQKWREYRRQCQRSLTEDPPPATDLFCNRTFDEYACWPDGEPGSFVNVSCPWYLPWASSVPQGHVYRFCTAEGLWLQKDNSSLPWRDLSECEESKRGERSSPEEQLLFLYIIYTVGYALSFSALVIASAILLGFRHLHCTRNYIHLNLFASFILRALSVFIKDAALKWMYSTAAQQHQWDGLLSYQDSLSCRLVFLLMQYCVAANYYWLLVEGVYLYTLLAFSVLSEQWIFRLYVSIGWGVPLLFVVPWGIVKYLYEDEGCWTRNSNMNYWLIIRLPILFAIGVNFLIFVRVICIVVSKLKANLMCKTDIKCRLAKSTLTLIPLLGTHEVIFAFVMAEHARGTLRFIKLFTELSFTSFQGLMVAILYCFVNNEVQLEFRKSWERWRLEHLHIQRDSSMKPLKCPTSSLSSGATAGSSMYTATCQASCS
B7: glucagon-like peptide 1 receptor (GLP-1R), wild-type, P43220 K383A (protein)
chain: RPQGATVSLWETVQKWREYRRQCQRSLTEDPPPATDLFCNRTFDEYACWPDGEPGSFVNVSCPWYLPWASSVPQGHVYRFCTAEGLWLQKDNSSLPWRDLSECEESKRGERSSPEEQLLFLYIIYTVGYALSFSALVIASAILLGFRHLHCTRNYIHLNLFASFILRALSVFIKDAALKWMYSTAAQQHQWDGLLSYQDSLSCRLVFLLMQYCVAANYYWLLVEGVYLYTLLAFSVLSEQWIFRLYVSIGWGVPLLFVVPWGIVKYLYEDEGCWTRNSNMNYWLIIRLPILFAIGVNFLIFVRVICIVVSKLKANLMCKTDIKCRLAKSTLTLIPLLGTHEVIFAFVMDEHARGTLRFIALFTELSFTSFQGLMVAILYCFVNNEVQLEFRKSWERWRLEHLHIQRDSSMKPLKCPTSSLSSGATAGSSMYTATCQASCS
B8: glucagon-like peptide 1 receptor (GLP-1R), wild-type, P43220 D222A (protein)
chain: RPQGATVSLWETVQKWREYRRQCQRSLTEDPPPATDLFCNRTFDEYACWPDGEPGSFVNVSCPWYLPWASSVPQGHVYRFCTAEGLWLQKDNSSLPWRDLSECEESKRGERSSPEEQLLFLYIIYTVGYALSFSALVIASAILLGFRHLHCTRNYIHLNLFASFILRALSVFIKDAALKWMYSTAAQQHQWDGLLSYQASLSCRLVFLLMQYCVAANYYWLLVEGVYLYTLLAFSVLSEQWIFRLYVSIGWGVPLLFVVPWGIVKYLYEDEGCWTRNSNMNYWLIIRLPILFAIGVNFLIFVRVICIVVSKLKANLMCKTDIKCRLAKSTLTLIPLLGTHEVIFAFVMDEHARGTLRFIKLFTELSFTSFQGLMVAILYCFVNNEVQLEFRKSWERWRLEHLHIQRDSSMKPLKCPTSSLSSGATAGSSMYTATCQASCS
B9: glucagon-like peptide 1 receptor (GLP-1R), wild-type, P43220 G295A (protein)
chain: RPQGATVSLWETVQKWREYRRQCQRSLTEDPPPATDLFCNRTFDEYACWPDGEPGSFVNVSCPWYLPWASSVPQGHVYRFCTAEGLWLQKDNSSLPWRDLSECEESKRGERSSPEEQLLFLYIIYTVGYALSFSALVIASAILLGFRHLHCTRNYIHLNLFASFILRALSVFIKDAALKWMYSTAAQQHQWDGLLSYQDSLSCRLVFLLMQYCVAANYYWLLVEGVYLYTLLAFSVLSEQWIFRLYVSIGWGVPLLFVVPWGIVKYLYEDEACWTRNSNMNYWLIIRLPILFAIGVNFLIFVRVICIVVSKLKANLMCKTDIKCRLAKSTLTLIPLLGTHEVIFAFVMDEHARGTLRFIKLFTELSFTSFQGLMVAILYCFVNNEVQLEFRKSWERWRLEHLHIQRDSSMKPLKCPTSSLSSGATAGSSMYTATCQASCS
B10: glucagon-like peptide 1 receptor (GLP-1R), wild-type, P43220 Y220A (protein)
chain: RPQGATVSLWETVQKWREYRRQCQRSLTEDPPPATDLFCNRTFDEYACWPDGEPGSFVNVSCPWYLPWASSVPQGHVYRFCTAEGLWLQKDNSSLPWRDLSECEESKRGERSSPEEQLLFLYIIYTVGYALSFSALVIASAILLGFRHLHCTRNYIHLNLFASFILRALSVFIKDAALKWMYSTAAQQHQWDGLLSAQDSLSCRLVFLLMQYCVAANYYWLLVEGVYLYTLLAFSVLSEQWIFRLYVSIGWGVPLLFVVPWGIVKYLYEDEGCWTRNSNMNYWLIIRLPILFAIGVNFLIFVRVICIVVSKLKANLMCKTDIKCRLAKSTLTLIPLLGTHEVIFAFVMDEHARGTLRFIKLFTELSFTSFQGLMVAILYCFVNNEVQLEFRKSWERWRLEHLHIQRDSSMKPLKCPTSSLSSGATAGSSMYTATCQASCS
B11: glucagon-like peptide 1 receptor (GLP-1R), wild-type, P43220 N300A (protein)
chain: RPQGATVSLWETVQKWREYRRQCQRSLTEDPPPATDLFCNRTFDEYACWPDGEPGSFVNVSCPWYLPWASSVPQGHVYRFCTAEGLWLQKDNSSLPWRDLSECEESKRGERSSPEEQLLFLYIIYTVGYALSFSALVIASAILLGFRHLHCTRNYIHLNLFASFILRALSVFIKDAALKWMYSTAAQQHQWDGLLSYQDSLSCRLVFLLMQYCVAANYYWLLVEGVYLYTLLAFSVLSEQWIFRLYVSIGWGVPLLFVVPWGIVKYLYEDEGCWTRASNMNYWLIIRLPILFAIGVNFLIFVRVICIVVSKLKANLMCKTDIKCRLAKSTLTLIPLLGTHEVIFAFVMDEHARGTLRFIKLFTELSFTSFQGLMVAILYCFVNNEVQLEFRKSWERWRLEHLHIQRDSSMKPLKCPTSSLSSGATAGSSMYTATCQASCS
B12: glucagon-like peptide 1 receptor (GLP-1R), wild-type, P43220 L201A (protein)
chain: RPQGATVSLWETVQKWREYRRQCQRSLTEDPPPATDLFCNRTFDEYACWPDGEPGSFVNVSCPWYLPWASSVPQGHVYRFCTAEGLWLQKDNSSLPWRDLSECEESKRGERSSPEEQLLFLYIIYTVGYALSFSALVIASAILLGFRHLHCTRNYIHLNLFASFILRALSVFIKDAAAKWMYSTAAQQHQWDGLLSYQDSLSCRLVFLLMQYCVAANYYWLLVEGVYLYTLLAFSVLSEQWIFRLYVSIGWGVPLLFVVPWGIVKYLYEDEGCWTRNSNMNYWLIIRLPILFAIGVNFLIFVRVICIVVSKLKANLMCKTDIKCRLAKSTLTLIPLLGTHEVIFAFVMDEHARGTLRFIKLFTELSFTSFQGLMVAILYCFVNNEVQLEFRKSWERWRLEHLHIQRDSSMKPLKCPTSSLSSGATAGSSMYTATCQASCS
B13: glucagon-like peptide 1 receptor (GLP-1R), wild-type, P43220 S223A (protein)
chain: RPQGATVSLWETVQKWREYRRQCQRSLTEDPPPATDLFCNRTFDEYACWPDGEPGSFVNVSCPWYLPWASSVPQGHVYRFCTAEGLWLQKDNSSLPWRDLSECEESKRGERSSPEEQLLFLYIIYTVGYALSFSALVIASAILLGFRHLHCTRNYIHLNLFASFILRALSVFIKDAALKWMYSTAAQQHQWDGLLSYQDALSCRLVFLLMQYCVAANYYWLLVEGVYLYTLLAFSVLSEQWIFRLYVSIGWGVPLLFVVPWGIVKYLYEDEGCWTRNSNMNYWLIIRLPILFAIGVNFLIFVRVICIVVSKLKANLMCKTDIKCRLAKSTLTLIPLLGTHEVIFAFVMDEHARGTLRFIKLFTELSFTSFQGLMVAILYCFVNNEVQLEFRKSWERWRLEHLHIQRDSSMKPLKCPTSSLSSGATAGSSMYTATCQASCS

Biological target: exendin-4, P26349
Experiment: radioligand inhibition binding (competition with 125I-exendin-4(9-39))
Details: chain shown with the change;; read off a plot

Q: For B1, which log10 ratio is on record?
A: Its log10 ratio is -1.8 ΔpKi.

Q: For B2, which log10 ratio is on record?
A: Its log10 ratio is -0.2 ΔpKi.

Q: How did the log10 ratio turn out when B3 was run?
A: Its log10 ratio is -0.4 ΔpKi.

Q: B4 was tested. Which log10 ratio did it give?
A: The log10 ratio was -0.15 ΔpKi.

Q: Which log10 ratio does the source give for B5 here?
A: Its log10 ratio is -0.3 ΔpKi.

Q: Which log10 ratio does the source give for B6 here?
A: Its log10 ratio is -1.1 ΔpKi.

Q: B7 was tested. Which log10 ratio did it give?
A: Its log10 ratio is -1.1 ΔpKi.

Q: B8 was tested. Which log10 ratio did it give?
A: The log10 ratio was -0.25 ΔpKi.

Q: B9 was tested. Which log10 ratio did it give?
A: The log10 ratio was -0.1 ΔpKi.

Q: Which log10 ratio does the source give for B10 here?
A: The log10 ratio was 0.1 ΔpKi.

Q: Which log10 ratio does the source give for B11 here?
A: The log10 ratio was -1.8 ΔpKi.

Q: How did the log10 ratio turn out when B12 was run?
A: The log10 ratio was -0.3 ΔpKi.

Q: With B13 as the binder, how does the log10 ratio read?
A: Its log10 ratio is -0.4 ΔpKi.
